Measurements as given in patent EP4676958A2 (dated 2026).

Target: T1, active human KLK7 (human, UniProt P49862 30-253)
T1 construct: mature; also called hKLK7; active form of hKLK7
Test: SPR, antibody captured on Protein A chip, 20 nM hKLK7 (FIG. 11A, 11F)

T1 sequence (P49862 30-253): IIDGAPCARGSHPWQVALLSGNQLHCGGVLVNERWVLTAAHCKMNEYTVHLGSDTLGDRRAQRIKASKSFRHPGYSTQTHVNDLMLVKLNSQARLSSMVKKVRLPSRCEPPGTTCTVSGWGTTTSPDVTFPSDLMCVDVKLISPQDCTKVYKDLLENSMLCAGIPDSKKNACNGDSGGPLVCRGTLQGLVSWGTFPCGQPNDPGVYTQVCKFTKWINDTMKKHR

B1: KLK7-L1-Ab8 (antibody, V domains shown)
VH: QVQLVQSGAEVKKPGASVKVSCKASGYTFTSEGIHWVRQAPGQGLEWMGSISASSGDTNYAQKLQGRVTMTTDTSTSTAYMELRSLRSDDTAVYYCARSAGYGARHWYFDLWGQGTMVTVSS
VL: DIQMTQSPSSLSASVGDRVTITCRASQSISSYLNWYQQKPGKAPKLLIYGASSLQSGVPSRFSGSGSGTDFTLTISSLQPEDFATYYCDQWYSTPPITFGGGTKVEIK
notes: captured on Protein A; also called KLK7-Ll-Ab8; KLK7- Ll-Ab8
binding result: binds
